# Source: US20260297172 (published 2026)
# T1: S100A9 (human, UniProt P06702)
# T1 chain: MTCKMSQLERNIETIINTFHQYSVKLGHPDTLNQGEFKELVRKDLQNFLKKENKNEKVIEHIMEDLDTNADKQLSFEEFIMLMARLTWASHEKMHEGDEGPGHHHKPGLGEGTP
# T2: S100A8/A9 (human, UniProt P05109)
# T2 chain 1: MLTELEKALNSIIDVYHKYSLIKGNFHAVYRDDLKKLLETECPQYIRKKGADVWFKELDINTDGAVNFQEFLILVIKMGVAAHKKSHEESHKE
# T2 chain 2: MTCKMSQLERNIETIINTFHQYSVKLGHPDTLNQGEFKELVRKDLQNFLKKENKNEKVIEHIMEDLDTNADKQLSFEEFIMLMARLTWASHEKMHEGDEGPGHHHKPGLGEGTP
# T3: S100A8 (human, UniProt P05109)
# T3 chain: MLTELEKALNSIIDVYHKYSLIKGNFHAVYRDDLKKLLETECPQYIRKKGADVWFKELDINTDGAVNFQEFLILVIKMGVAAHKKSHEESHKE
# Biological target: T1, S100A9
# Experiment: ELISA
row,binding result,Binder
1,no binding,"8H6 (antibody, V domains shown) VH: CQSLEESGGDLVKPEGSLTLTCKASGFSFSSGCWVCWVRQAPGKGLEWIACIYTGDGDTYYANWARGRFTVSRTSSTTVTLQLTSLTAADTATYFCASPQPGDITYLGFWGPGTLVTVSS VL: DIVMTQTPASVSEPVGGTVTIKCQASQNINSYLSWYQQRPGQPPKLLISLASDLASGVPSRFKGSESGTDYTLTISDLECADAATYYCQGYFADSGSSGRSWAFGGGTEVVVQG"
2,no binding,"14G9 (antibody, V domains shown) VH: QEQLVESGGGLVQPEGSLTLTCTASGFSFSSDYYMCWVRQAPGKGLEWIACIGGGYGGSPYYATWAKGRFTISKTSSTAVTLQMTSLTAADTATHFCARGVPGSSCFFDLWGPGTLVTVSS VL: DVAMTQTPASVSEPVGGTVTIKCQASQSIGSSLAWYQQKSGQPPKLLIYDAFDLASGVSSRFKGSGSGTEYTLTISDLECADAATYFCLGGYYDANTFGGGTEVVVKG"

# Biological target: T2, S100A8/A9
# Experiment: BLI
row,Kd,Binder
1,1.37 nM,"8H6-HC (antibody, V domains shown) VH: CQSLEESGGDLVKPEGSLTLTCKASGFSFSSGCWVCWVRQAPGKGLEWIACIYTGDGDTYYANWARGRFTVSRTSSTTVTLQLTSLTAADTATYFCASPQPGDITYLGFWGPGTLVTVSS VL: DIVMTQTPASVSEPVGGTVTIKCQASQNINSYLSWYQQRPGQPPKLLISLASDLASGVPSRFKGSESGTDYTLTISDLECADAATYYCQGYFADSGSSGRSWAFGGGTEVVVQG"
2,0.608 nM,"ROIS-2 (antibody, V domains shown) VH: NVQLVESGGGLIHPGGSLSLSCKASGFSFSSGCWVCWVRQAPGKGLEWVACIYTGDGDTYYADSVKGRFTISRTSSKTTVYLQMNSLRAEDTAVYYCASPQPGDITYLGFWGQGTLVTVSS VL: DIHMTQSPSSLSASVGDTVTITCQASQNINSYLSWYQQKPGKAPKLLISLASDLASGVPSRFSGSESGTDYTLTISSLQPEDFATYYCQGYFADSGSSGRSWAFGQGTKVEIKR"
3,0.789 nM,"ROIS-1 (antibody, V domains shown) VH: NVQLVESGGGLIHPGGSLSLSCKASGFSFSSGCWVCWVRQAPGKGLEWVACIYTGDGDTYYADSVRGRFTISRTSSKTTVYLQMNSLRAEDTAVYYCASPQPGDITYLGFWGQGTLVTVSS VL: DIHMTQSPSSLSASVGDTVTITCQASQNINSYLSWYQQEPGKAPKLLISLASDLASGVPSRFSGSESGTDYTLTISSLQPEDFATYYCQGYFADSGSSGRSWAFGQGTKVEIKR"
4,0.623 nM,"ROIS-5 (antibody, V domains shown) VH: QVSLEESGGDLVQPGGSLRLACVASGFSFSSGCWVCWVRQAPGKGLEWVSCIYTGDGDTYYANSVRGRFTVSRRNSTTSVYLQMNSLRADDTALYFCASPQPGDITYLGFWGPGTLVTVSS VL: DIHMTQSPSSLSASVGDTVTITCQASQNINSYLSWYQQKPGKAPKLLISLASDLASGVPSRFSGSESGTDYTLTISSLQPEDFATYYCQGYFADSGSSGRSWAFGQGTKVEIKR"
5,0.0477 nM,"ROIS-3 (antibody, V domains shown) VH: QVSLEESGGDLVQPGGSLRLACVASGFSFSSGCWVCWVRQAPGKGLEWVSCIYTGDGDTYYANSVRGRFTVSRQNSTTSVYLQMNSLRADDTALYFCASPQPGDITYLGFWGPGTLVTVSS VL: DIHMTQSPSSLSASVGDTVTITCQASQNINSYLSWYQQKPGKAPKLLISLASDLASGVPSRFSGSESGTDYTLTISSLQPEDFATYYCQGYFADSGSSGRSWAFGQGTKVEIKR"
6,1.76 nM,"ROIS-4 (antibody, V domains shown) VH: QVSLEESGGDLVQPGGSLRLACVASGFSFSSGCWVCWVRQAPGKGLEWVSCIYTGDGDTYYANSVRGRFTVSRKNSTTSVYLQMNSLRADDTALYFCASPQPGDITYLGFWGPGTLVTVSS VL: DIHMTQSPSSLSASVGDTVTITCQASQNINSYLSWYQQKPGKAPKLLISLASDLASGVPSRFSGSESGTDYTLTISSLQPEDFATYYCQGYFADSGSSGRSWAFGQGTKVEIKR"

# Biological target: T2, S100A8/A9
# Experiment: competition ELISA, blocking CD69 binding
row,IC50,Binder
1,~1.25 µg/mL,"8H6-mIgG2a (antibody, V domains shown) VH: CQSLEESGGDLVKPEGSLTLTCKASGFSFSSGCWVCWVRQAPGKGLEWIACIYTGDGDTYYANWARGRFTVSRTSSTTVTLQLTSLTAADTATYFCASPQPGDITYLGFWGPGTLVTVSS VL: DIVMTQTPASVSEPVGGTVTIKCQASQNINSYLSWYQQRPGQPPKLLISLASDLASGVPSRFKGSESGTDYTLTISDLECADAATYYCQGYFADSGSSGRSWAFGGGTEVVVQG"
2,~2.5 µg/mL,"6C8-mIgG2a (antibody, V domains shown) VH: QEQLVESGGGLVTLGGSLKLSCKASGIDFSIYGISWVRQAPGKGLEWIAYIYPDYSTTDYASWVNGRFTISFDNAQNTVFLEMTSLTAADTATYFCARRYSGYYGLWGPGTLVTVSS VL: ALVMTQTPSSVSAPVGGTVTIKCQASQSISSYLAWYQQKPGQRPKLLIYGASSLESGVPSRFKGSGSGTEYTLTISDLECDDAATYYCQGAHAGSSADAFGGGTEVVVKG"

# Biological target: T3, S100A8
# Experiment: ELISA
row,binding result,Binder
1,no binding,"14G9 (antibody, V domains shown) VH: QEQLVESGGGLVQPEGSLTLTCTASGFSFSSDYYMCWVRQAPGKGLEWIACIGGGYGGSPYYATWAKGRFTISKTSSTAVTLQMTSLTAADTATHFCARGVPGSSCFFDLWGPGTLVTVSS VL: DVAMTQTPASVSEPVGGTVTIKCQASQSIGSSLAWYQQKSGQPPKLLIYDAFDLASGVSSRFKGSGSGTEYTLTISDLECADAATYFCLGGYYDANTFGGGTEVVVKG"
2,no binding,"6C8 (antibody, V domains shown) VH: QEQLVESGGGLVTLGGSLKLSCKASGIDFSIYGISWVRQAPGKGLEWIAYIYPDYSTTDYASWVNGRFTISFDNAQNTVFLEMTSLTAADTATYFCARRYSGYYGLWGPGTLVTVSS VL: ALVMTQTPSSVSAPVGGTVTIKCQASQSISSYLAWYQQKPGQRPKLLIYGASSLESGVPSRFKGSGSGTEYTLTISDLECDDAATYYCQGAHAGSSADAFGGGTEVVVKG"
